Target: the engineered RGA5_HMAs
Experiment: SPR

Substance: 6xHis-tagged AVR-PikD (from UniProt C4B8B8 22-113) (natural protein)
- Kd: 0.5 to 1.6 nM
